Experimental data taken from patent US20220112288A1 (published 2022).
Changes are numbered by the printed parent chain.

B1: 75110_04B08A (antibody, V domains shown)
VH: QVQLVESGGGVVQPGRSLRLSCTASGFNFINYGIHWVRQAPGKGLEWVTIIWYDGSKKYYADSVKGRFAISRDNSKNTLYLQMNSLRAEDTAVYYCAREDDWNDGLAYWGQGTLVTVSS
VL: AIQMTQSPSSLSASVGDRVTITCRASQDIRNDLGWYQQKPGKAPNLLIYAASNLQSGVPSRFSGSGSGTDFTLTISSLQPEDFATYYCLQDSNYPRTFGQGTKVEIK
notes: Tested as antibody purified from AlivaMab Mouse hybridoma supernatant (captured by anti-mouse IgG Fc)
B2: 75110_02K11A (antibody, V domains shown)
VH: QVQLQESGPGLVKPSQTLSLTCTVSGGSISSGFYYWTWIRQHPGKGLEWIGYISYSGNTYYNPSFKSRLTISVDTSKSQFSLKLSSVTAADTAVYYCARDRPSNFDAFDIWGQGTMVTVSS
VL: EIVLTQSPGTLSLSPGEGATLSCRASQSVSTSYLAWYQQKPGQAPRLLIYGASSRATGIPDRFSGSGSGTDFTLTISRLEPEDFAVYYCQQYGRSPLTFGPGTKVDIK
notes: as for B1
B3: 75110_04G16A (antibody, V domains shown)
VH: B2 VH with G27D, F33Y, T37S, N58S, F65L, D74N, S78N, V87L
VL: EIVLTQSPGTLSLSPGERATLSCRASQSVGSTYLAWYQQKPGQAPRLLIYGAFSRATGIPDRFSGSGSGTDFTLTISRLEPEDFAVYYCQQYGSSPLTFGPGTKVDIK
notes: as for B1
B4: 75110_04H17A (antibody, V domains shown)
VH: QVQLQESGPGLVKPSETLSLTCTVSGGSISTYYWSWIRQSAGKGLEWIGRIYTSERPNYNPSLKSRVTMSVDTSKNQFSLKLNSVSAADTAVYYCARELERPYYYGMDVWGQGTTVTVSS
VL: DVQMTQSPSSLSASVGGRVTITCQASQDISNYLNWYQQKPGKAPKLLIYYASNLETGVPSRFSGSGSGTDFTFTISSLQPEDFATYYCQQYDNLPLTFGGGTKVEIK
notes: as for B1
B5: 75110_06C16A (antibody, V domains shown)
VH: QVQLQESGPGLVTPSETLSLSCTVSGGSISDYYWSWIRQPGGKGLEWIGRIYSSGSTNYNPSLKSRVTMSVDTSKNQFSLKLSSVTAADTAVYFCARDREDYYYYGMDVWGQGTTVTVSS
VL: B4 VL with V2I, G17D, Q27H, Y50A, T72S, F83I, N93H
notes: Tested as antibody purified from AlivaMab Mouse hybridoma supernatant (human variable domains, kappa; mouse Fc, captured on anti-mouse IgG Fc sensors); also called ADS75110 purified AMM Ab
B6: 75110_08D24A (antibody, V domains shown)
VH: B5 VH with T13K, S21T, D31G, Y32F, G41A, S53T, G55E, S56N, F94Y, D101G
VL: B4 VL with V2I, G17D, Y50A, F83I, N93S, L96I, G100Q, K103R, V104L
notes: as for B5
B7: 75110_05A11A (antibody, V domains shown)
VH: EVQLVESGGGLVKPGGSLTLSCAASGFTFSNTWMSWVRQAPGKGLEWVGRIKSKIDGGTTDYAAPVKGRFTISRDDSKNTLYLQMNSLKTEDTAVYYCTTSGTYSSGWGLFDYWGQGTLVTVSS
VL: B4 VL with V2I, G17D, Y50D, A51T, T56A, D70H, F73L, F83I, L96F, K103R
notes: as for B1
B8: 75110_08M20A (antibody, V domains shown)
VH: B5 VH with G8D, T13K, S21T, D31S, G41A, S53A, F94Y, D101G
VL: DIQMTQSPSSLSASVGDRVTITCQASQDISKYLNWYQQKPGKAPNLLIYAASNLETGVPSRFSGSGSGTDFTFTISSLQPEDIAAYYCQQYDSLPITFGQGTRLEIK
notes: as for B5
B9: 75110_06E14A (antibody, V domains shown)
VH: B5 VH with T13K, S21T, D31N, Y33F, G41A, S56N, F94Y
VL: B8 VL with K31N, N45K, A50G, N53I, S63T, A85T
notes: as for B5
B10: 75110_04D20A (antibody, V domains shown)
VH: QVQLQESGPGLVKPSETLSLTCTVSNGSISDYYWSWIRQPAGKGLEWIGRIYTSGSTNYNPSLKSRITMSVDTSKNQFSLELSSVTAADTAVYYCARELERYYFYGVDVWGQGTTVTVSS
VL: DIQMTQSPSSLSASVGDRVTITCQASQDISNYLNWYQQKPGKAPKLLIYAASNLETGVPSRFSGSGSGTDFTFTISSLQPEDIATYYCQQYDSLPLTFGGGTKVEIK
notes: as for B1
B11: 75110_03I23A (antibody, V domains shown)
VH: QVQLQESGPGLVKPSETLSLTCTASGGSITSYYWNWIRQPAGKGLEWIGRIYTSGSTNYNPSLKSRVTMSVDTSKNQFSLKLSSVTAADTAVYYCARDPGYSDAFNIWGQGTMVTVSS
VL: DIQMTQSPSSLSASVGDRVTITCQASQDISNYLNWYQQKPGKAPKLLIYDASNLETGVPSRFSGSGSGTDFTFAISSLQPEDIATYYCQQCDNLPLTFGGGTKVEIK
notes: as for B1
B12: 75110_05G15A (antibody, V domains shown)
VH: QVQLQESGPGLVKPSQTLSLTCTVSGGSISSGGYFWSWIRQHPGKGLEWIGCIYYSGSTYYIPSLKSRVTISVDTSKNQFSLKLRSVTAADTAVYYCARDGYDYWYFDLWGRGTLVTVSS
VL: not shown
B13: 75110_02I16A (antibody, V domains shown)
VH: QVQLQQWGAGLLKPSETLSLTCDVYGGSFSGYYWTWIRQPPGKGLEWIGEINHSGTTNSNPSLKSRVTISVDTSKSQFSLRLSSVTAADTAVYFCTRELNWFDPWGQGTLVTVSS
VL: DIQMTQSPSSVSASVGDRVTITCRASQDIANWLAWYQQKPGKAPQLLIYAASSLLGGVPSRFSGSGSGADFTLTISSLHPEDFATYYCQQANSFPYTFGQGTKLEIK
notes: as for B1
B14: 75110_05B13A (antibody, V domains shown)
VH: QVLLEQWGAGLLKPSETLSLTCAVYGGSFSGYYWTWIRQPPGKGLEWIGEINHRGSTNYNPSLKSRVTISIDTSKNQFSLKVKSVTAADTAMYYCTRPDSNWFDPWGQGTLVTVSS
VL: B13 VL with A30S, Q45K, Y49F, L55Q, G56S, A69T, H79Q, Y96L, Q100G, L104V
notes: as for B1
B15: 75110_04P08A (antibody, V domains shown)
VH: QVQLQQWGAGLLKPSETLSLTCAVYGGSLSGYYWSWIRQSPGKGLEWIGEINQSGSTNYNPSLKSRVTISVDTSKDQFSLRLTSVTAADTAVYYCTRVLNWFDPWGRGTLVTVSS
VL: B13 VL with I21L, A30S, Q45K, L55Q, G56S, A69T, H79Q, P80T
notes: as for B1
B16: 75110_06D16A (antibody, V domains shown)
VH: B15 VH with L29F, S40P, Q53H, D72V, D76N, R81K, T83S, T96A, R107Q
VL: B13 VL with N31D, Q45K, L54F, L55Q, G56S, A69T, H79Q, Y87F
notes: as for B5
B17: 75110_04G02A (antibody, V domains shown)
VH: not shown
VL: DIVMTQSPDSLAVSLGERATINCKSSQSVLYSSNNKNYLAWYQQKPGQPPKLLFYWASARESGVPDRFSGSGSGTDFTLTISSLQAEDVALYYCQQYFGSFPTFGQGTKLEIK
notes: as for B1
B18: 75110_03I08A (antibody, V domains shown)
VH: QVQLQESGPGLVKPSETLSLTCTVSGGSISSYYWSWIRQPPGKGLEWIGYIYYSGSTNYNPSLKSRVTISVDTSKNQFSLKLSSVTAADTAVYYCAREGEQWFYGLDVWGQGTTVTVSS
VL: EIVLTQSPGTLSLSPGERATLSCRASQSVSSTYLAWYQQKPGQAPRLLIYGSSSRATGIPDRFSGSGSGTDFTLTISRLEPEDFAVYYCQQYGNSFPITFGQGTRLEIK
notes: as for B1
B19: 75110_05E13A (antibody, V domains shown)
VH: EVQLVESGGDLVKPGGSLRLSCAASGFSFSNAWMSWVRQAPGKGLEWVGRVESKTDGGTTDYAAPVKDRFTISRDDSKYTLYLQMNSLKTEDSAVYYCTIGGGFGLELYGFFDYWGQGTLVTVSS
VL: DIQMTQSPSTLSASVGDRVTITCRASQSISSWLAWYQQKPGKAPMLLIYKASSLESGVPSRFSGSGSGTEFTLTISSLQPDDFATYYCLQYNSYYTFGQGTKLEIK
notes: as for B1
B20: 75110_05E05A (antibody, V domains shown)
VH: QVQLQESGPGLVKPSETLSLTCTVSGGSIGSYYWSWIRQPAGKGLEWIGRIYTSGSTNYNPSLKSRVTMSFDTSKNQFSLKLNSVTAADTAVYYCATDGGVGDSLDYWGQGTLVTVSS
VL: DIVMTQTPLSLPVTPGEPASISCRSSQSLLDSDDGNTYLDWYLQKPGQSPQLLIYTLSYRASGVPDRFSGSGSGTDFTLKISRVEAEDVGVYYCMQHIEFPFTFGPGTKVDIK
notes: as for B1
B21: 75110_05L07A (antibody, V domains shown)
VH: EVQLVESGGGLVQPGGSLRLSCAASGFTFSSYWMSWVRQAPGKGLEWVANINQDGSDKYYVDSVKGRFTISRDNVKNSLYLQINSLRAEDTAVYYCAREGGQWLTLDYWGQGTLVTVSS
VL: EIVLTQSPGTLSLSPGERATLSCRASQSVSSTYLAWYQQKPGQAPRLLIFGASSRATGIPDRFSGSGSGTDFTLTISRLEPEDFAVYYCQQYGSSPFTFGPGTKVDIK
notes: as for B5

Legend:
[1] = molecular target: T1, Recombinant human CD4 (R&D Systems, Cat. 10327-CD) (human, UniProt P01730 26-390, limits assumed); test: BLI Octet, mAb on anti-mouse Fc sensor, CD4 100/50/25 nM, 1:1 global fit;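 further: antibodies loaded at 10 µg/mL, an unrelated mouse-derived antibody served as internal reference control, association and dissociation phases fitted after Savitzky-Golay smoothing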
T1 construct: Soluble analyte in the Octet assay

[2] = molecular target: T2, Rhesus macaque CD4-HIS (Acro Biosystems, Cat. CD4-C52H7) (rhesus macaque, UniProt P16003 26-390); test: BLI (Octet Red384); Ab on anti-mouse Fc (AMC) sensor; rhesus CD4-HIS 100/50/25 nM; global 1:1 fit;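 further: antibodies loaded at 10 µg/mL, an unrelated mouse-derived antibody served as internal reference, curves fit over association and dissociation phases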
T2 construct: Bought reagent; also called Rhesus CD4; rhesus CD4-HIS; not shown: His tag
T2 sequence (P16003 26-390 limits assumed): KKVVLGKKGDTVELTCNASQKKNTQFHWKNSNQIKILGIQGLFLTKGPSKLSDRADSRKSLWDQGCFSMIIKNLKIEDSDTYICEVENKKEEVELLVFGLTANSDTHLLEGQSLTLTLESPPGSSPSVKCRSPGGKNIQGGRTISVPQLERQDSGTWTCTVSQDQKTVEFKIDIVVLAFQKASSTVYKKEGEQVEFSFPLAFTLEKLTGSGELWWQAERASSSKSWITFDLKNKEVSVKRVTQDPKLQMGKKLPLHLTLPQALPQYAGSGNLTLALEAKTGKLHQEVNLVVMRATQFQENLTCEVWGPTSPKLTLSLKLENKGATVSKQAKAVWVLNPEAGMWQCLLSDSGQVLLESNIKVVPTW

Binder | Kd [1] [nM] | Response [1] | koff [1] [s⁻¹] | kon [1] [M⁻¹ s⁻¹] | Kd [2] [nM] | Response [2] | koff [2] [s⁻¹] | kon [2] [M⁻¹ s⁻¹]
B1 | 17 | 0.25 | 0.0037 | 220000 | – | – | – | –
B2 | 19 | 0.11 | 0.0014 | 74000 | – | – | – | –
B3 | 5.3 | 0.23 | 0.00047 | 89000 | – | – | – | –
B4 | 0.25 | 0.15 | 1.8e-05 | 73000 | – | – | – | –
B5 | – | – | – | – | 27 | 0.15 | 0.002 | 73000
B6 | – | – | – | – | 53 | 0.05 | 0.0017 | 32000
B7 | 18 | 0.27 | 0.0018 | 97000 | – | – | – | –
B8 | – | – | – | – | 17 | 0.17 | 0.0022 | 130000
B9 | – | – | – | – | 230 | 0.1 | 0.00069 | 3000
B10 | 8.9 | 0.14 | 0.0008 | 90000 | – | – | – | –
B11 | < 0.001 | 0.18 | < 1e-07 | 80000 | – | – | – | –
B12 | 13 | 0.09 | 0.0022 | 170000 | – | – | – | –
B13 | 3.5 | 0.22 | 0.0004 | 120000 | – | – | – | –
B14 | 5.4 | 0.28 | 0.00058 | 110000 | – | – | – | –
B15 | 3.6 | 0.23 | 0.0005 | 140000 | – | – | – | –
B16 | – | – | – | – | 240 | 0.09 | 0.022 | 91000
B17 | 16 | 0.17 | 0.0015 | 90000 | – | – | – | –
B18 | 8.8 | 0.14 | 0.0011 | 130000 | – | – | – | –
B19 | 2.2 | 0.37 | 0.00022 | 100000 | – | – | – | –
B20 | < 0.001 | 0.18 | < 1e-07 | 34000 | – | – | – | –
B21 | – | – | – | – | 7.6 | 0.31 | 0.0011 | 150000
